Tests used:
Assay in all cases: holdup assay
Design in all cases: key: below the threshold = too weak to quantify, mostly under pKd 3.1 to 4
APBA1_2, Q02410 = target: T1, APBA1_2, Q02410
T1 sequence (Q02410 742-832, limits assumed, looked up): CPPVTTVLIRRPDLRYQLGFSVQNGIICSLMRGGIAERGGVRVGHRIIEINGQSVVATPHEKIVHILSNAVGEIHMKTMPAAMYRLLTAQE

APBA2_1, Q99767 = target: T2, APBA2_1, Q99767
T2 sequence (Q99767 563-664, limits assumed, looked up): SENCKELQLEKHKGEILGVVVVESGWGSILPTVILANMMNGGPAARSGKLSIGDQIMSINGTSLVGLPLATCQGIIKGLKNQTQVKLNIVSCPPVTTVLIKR

CASK, O14936 = target: CASK, O14936
Chain of CASK, O14936 (O14936 487-570): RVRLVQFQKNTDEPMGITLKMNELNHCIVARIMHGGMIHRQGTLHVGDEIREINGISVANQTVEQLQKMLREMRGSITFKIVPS

DLG3_3, Q92796 = target: T3, DLG3_3, Q92796
T3 sequence (Q92796 374-475, limits assumed, looked up): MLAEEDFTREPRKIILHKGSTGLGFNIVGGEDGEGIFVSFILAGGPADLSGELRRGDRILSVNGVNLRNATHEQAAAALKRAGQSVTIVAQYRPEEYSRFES

FRMPD2_2, Q68DX3 = target: FRMPD2_2, Q68DX3
Chain of FRMPD2_2, Q68DX3 (Q68DX3 944-1038): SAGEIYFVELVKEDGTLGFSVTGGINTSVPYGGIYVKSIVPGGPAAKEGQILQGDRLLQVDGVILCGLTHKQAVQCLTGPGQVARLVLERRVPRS

FRMPD2_3, Q68DX3 = target: FRMPD2_3, Q68DX3
Chain of FRMPD2_3, Q68DX3 (Q68DX3 1073-1166): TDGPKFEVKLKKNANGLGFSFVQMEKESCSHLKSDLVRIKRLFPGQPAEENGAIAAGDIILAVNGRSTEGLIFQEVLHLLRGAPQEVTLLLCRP

GORASP1, Q9BQQ3 = target: GORASP1, Q9BQQ3
Chain of GORASP1, Q9BQQ3 (Q9BQQ3 1-208): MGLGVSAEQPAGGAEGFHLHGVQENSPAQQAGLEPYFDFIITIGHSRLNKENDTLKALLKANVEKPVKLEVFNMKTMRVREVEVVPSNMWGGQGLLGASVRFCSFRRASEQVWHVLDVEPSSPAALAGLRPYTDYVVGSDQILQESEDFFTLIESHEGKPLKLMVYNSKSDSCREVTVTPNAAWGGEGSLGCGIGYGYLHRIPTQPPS

GRIP2_3, Q9C0E4 = target: GRIP2_3, Q9C0E4
Chain of GRIP2_3, Q9C0E4 (Q9C0E4 238-339): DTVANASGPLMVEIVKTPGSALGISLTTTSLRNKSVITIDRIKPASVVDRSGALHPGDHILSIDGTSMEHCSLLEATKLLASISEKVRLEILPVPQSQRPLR

GRIP2_4, Q9C0E4 = target: GRIP2_4, Q9C0E4
Chain of GRIP2_4, Q9C0E4 (Q9C0E4 446-548): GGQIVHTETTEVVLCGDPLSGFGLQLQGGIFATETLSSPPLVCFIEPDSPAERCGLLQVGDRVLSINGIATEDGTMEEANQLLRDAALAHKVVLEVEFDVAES

GRIP2_5, Q9C0E4 = target: GRIP2_5, Q9C0E4
Chain of GRIP2_5, Q9C0E4 (Q9C0E4 544-642): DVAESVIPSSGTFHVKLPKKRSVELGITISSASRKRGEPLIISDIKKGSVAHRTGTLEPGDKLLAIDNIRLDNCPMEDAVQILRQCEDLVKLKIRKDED

GRIP2_6, Q9C0E4 = target: GRIP2_6, Q9C0E4
Chain of GRIP2_6, Q9C0E4 (Q9C0E4 648-740): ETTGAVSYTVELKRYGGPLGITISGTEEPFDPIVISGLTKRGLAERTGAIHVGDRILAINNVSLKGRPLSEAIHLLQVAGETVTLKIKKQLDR

HTRA2, O43464 = target: HTRA2, O43464
Chain of HTRA2, O43464 (O43464 355-458): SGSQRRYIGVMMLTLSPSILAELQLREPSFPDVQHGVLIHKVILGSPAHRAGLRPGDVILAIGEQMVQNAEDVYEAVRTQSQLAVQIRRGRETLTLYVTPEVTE

Inadl_2, Q8NI35 = target: Inadl_2, Q8NI35
Chain of Inadl_2, Q8NI35 (Q8NI35 238-335): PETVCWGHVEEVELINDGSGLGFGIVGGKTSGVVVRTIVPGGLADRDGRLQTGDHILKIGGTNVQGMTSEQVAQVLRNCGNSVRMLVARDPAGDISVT

LAP2, Q96RT1 = target: LAP2, Q96RT1
Chain of LAP2, Q96RT1 (Q96RT1 other isoform, or with tags, fused parts or gaps): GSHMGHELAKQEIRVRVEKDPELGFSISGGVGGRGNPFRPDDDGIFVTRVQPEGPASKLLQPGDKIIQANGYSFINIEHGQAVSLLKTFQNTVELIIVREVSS

LNX1_1, Q8TBB1 = target: LNX1_1, Q8TBB1
Chain of LNX1_1, Q8TBB1 (Q8TBB1 261-371): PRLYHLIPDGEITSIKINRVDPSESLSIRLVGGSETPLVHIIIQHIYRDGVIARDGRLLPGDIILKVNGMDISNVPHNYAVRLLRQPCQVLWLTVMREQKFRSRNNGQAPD

LNX1_2, Q8TBB1 = target: LNX1_2, Q8TBB1
Chain of LNX1_2, Q8TBB1 (Q8TBB1 371-470): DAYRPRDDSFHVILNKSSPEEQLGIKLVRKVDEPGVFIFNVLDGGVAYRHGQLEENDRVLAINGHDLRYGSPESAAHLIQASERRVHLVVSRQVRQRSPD

MAGI1_1, Q96QZ7 = target: MAGI1_1, Q96QZ7
Chain of MAGI1_1, Q96QZ7 (Q96QZ7 1-106): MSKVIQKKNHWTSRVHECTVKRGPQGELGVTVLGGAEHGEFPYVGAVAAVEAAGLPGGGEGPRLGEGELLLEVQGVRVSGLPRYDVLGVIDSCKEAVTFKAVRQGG

MPDZ_10, O75970 = target: T4, MPDZ_10, O75970
T4 sequence (O75970 1624-1722, limits assumed, looked up): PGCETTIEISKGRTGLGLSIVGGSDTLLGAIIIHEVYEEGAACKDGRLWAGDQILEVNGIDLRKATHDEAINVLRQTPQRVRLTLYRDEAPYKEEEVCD

NHERF2_2, Q15599 = target: NHERF2_2, Q15599
Chain of NHERF2_2, Q15599 (Q15599 142-238): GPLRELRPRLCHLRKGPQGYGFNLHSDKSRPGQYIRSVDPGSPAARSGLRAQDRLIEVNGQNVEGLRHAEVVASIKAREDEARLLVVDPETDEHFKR

NHERF3_1, Q5T2W1 = target: T5, NHERF3_1, Q5T2W1
T5 sequence (Q5T2W1 4-100, limits assumed, looked up): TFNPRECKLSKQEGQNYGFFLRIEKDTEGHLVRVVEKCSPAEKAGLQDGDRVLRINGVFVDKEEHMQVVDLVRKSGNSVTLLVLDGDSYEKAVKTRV

PARD3B_1, Q8TEW8 = target: T6, PARD3B_1, Q8TEW8
T6 sequence (Q8TEW8 196-299, limits assumed, looked up): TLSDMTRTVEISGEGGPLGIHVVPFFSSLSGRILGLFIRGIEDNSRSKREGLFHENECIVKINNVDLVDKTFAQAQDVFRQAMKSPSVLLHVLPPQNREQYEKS

PARD3_3, Q8TEW0 = target: PARD3_3, Q8TEW0
Chain of PARD3_3, Q8TEW0 (Q8TEW0 582-685): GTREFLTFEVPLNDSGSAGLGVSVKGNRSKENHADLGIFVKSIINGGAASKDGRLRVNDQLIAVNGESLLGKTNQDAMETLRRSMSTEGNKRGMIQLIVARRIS

PDZRN3_1, Q9UPQ7 = target: T7, PDZRN3_1, Q9UPQ7
T7 sequence (Q9UPQ7 244-349, limits assumed, looked up): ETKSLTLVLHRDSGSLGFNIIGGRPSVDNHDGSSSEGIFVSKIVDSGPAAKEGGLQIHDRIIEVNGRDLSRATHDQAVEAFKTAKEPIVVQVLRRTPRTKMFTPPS

PTPN13_1, Q12923 = target: T8, PTPN13_1, Q12923
T8 sequence (Q12923 1088-1188, limits assumed, looked up): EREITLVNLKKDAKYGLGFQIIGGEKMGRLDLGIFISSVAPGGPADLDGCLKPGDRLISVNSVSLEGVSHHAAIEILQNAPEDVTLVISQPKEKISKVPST

SNTG2, Q9NY99 = target: T9, SNTG2, Q9NY99
T9 sequence (Q9NY99 68-166, limits assumed, looked up): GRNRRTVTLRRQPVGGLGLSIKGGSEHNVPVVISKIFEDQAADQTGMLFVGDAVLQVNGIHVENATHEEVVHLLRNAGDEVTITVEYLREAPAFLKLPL

TIAM2, Q8IVF5 = target: T10, TIAM2, Q8IVF5
T10 sequence (Q8IVF5 885-986, limits assumed, looked up): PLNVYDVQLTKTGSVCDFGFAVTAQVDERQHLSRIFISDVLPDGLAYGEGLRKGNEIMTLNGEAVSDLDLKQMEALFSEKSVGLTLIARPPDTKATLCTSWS

TJP1_3, Q07157 = target: TJP1_3, Q07157
Chain of TJP1_3, Q07157 (Q07157 416-512): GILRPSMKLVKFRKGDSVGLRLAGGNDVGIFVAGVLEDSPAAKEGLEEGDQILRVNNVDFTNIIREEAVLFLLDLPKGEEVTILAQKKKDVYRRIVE

[1] = plain residues with an end cap or a label only (N-terminal biotin on a linker: (peg)3)
[2] = plain residues with an end cap or a label only (N-terminal biotin on a linker: ado-ado)

In the case of NLNSSEGVPDLLV [SARS-CoV-E, P59637], the pKd (APBA1_2, Q02410; [1]) is reported as “below the threshold”, the pKd (APBA2_1, Q99767; [1]) is reported as “below the threshold” and the pKd (CASK, O14936; [1]) is reported as “below the threshold”. For the same binder, the pKd (DLG3_3, Q92796; [1]) was “below the threshold”, the pKd (FRMPD2_2, Q68DX3; [1]) was “below the threshold” and the pKd (FRMPD2_3, Q68DX3; [1]) was “below the threshold”. For the same binder, the pKd (GORASP1, Q9BQQ3; [1]) was “below the threshold”, the pKd (GRIP2_3, Q9C0E4; [1]) was “below the threshold” and the pKd (GRIP2_4, Q9C0E4; [1]) was “below the threshold”. The pKd (GRIP2_5, Q9C0E4; [1]) was “below the threshold”, the pKd (GRIP2_6, Q9C0E4; [1]) was “below the threshold” and the pKd (HTRA2, O43464; [1]) was “below the threshold”. The pKd (Inadl_2, Q8NI35; [1]) was “below the threshold”, the pKd (LAP2, Q96RT1; [1]) was “below the threshold” and the pKd (LNX1_1, Q8TBB1; [1]) was “below the threshold”. For the same binder, the pKd (LNX1_2, Q8TBB1; [1]) was 4.06, the pKd (MAGI1_1, Q96QZ7; [1]) was “below the threshold” and the pKd (MPDZ_10, O75970; [1]) was “below the threshold”. The pKd (NHERF2_2, Q15599; [1]) was “below the threshold”, the pKd (NHERF3_1, Q5T2W1; [1]) was “below the threshold” and the pKd (PARD3B_1, Q8TEW8; [1]) was “below the threshold”. The pKd (PARD3_3, Q8TEW0; [1]) was 4.27, the pKd (PDZRN3_1, Q9UPQ7; [1]) was “below the threshold” and the pKd (PTPN13_1, Q12923; [1]) was “below the threshold”. The pKd (SNTG2, Q9NY99; [1]) was “below the threshold”, the pKd (TIAM2, Q8IVF5; [1]) was “below the threshold” and the pKd (TJP1_3, Q07157; [1]) was “below the threshold”.

In the case of VYPNAKVELV [PDLIM4_iso2, P50479;P50479-1], the pKd (APBA1_2, Q02410; [2]) is reported as 3.91, the pKd (APBA2_1, Q99767; [2]) is reported as “below the threshold” and the pKd (CASK, O14936; [2]) is reported as “below the threshold”. For the same binder, the pKd (DLG3_3, Q92796; [2]) was “below the threshold”, the pKd (FRMPD2_2, Q68DX3; [2]) was “below the threshold” and the pKd (FRMPD2_3, Q68DX3; [2]) was “below the threshold”. For the same binder, the pKd (GORASP1, Q9BQQ3; [2]) was 4.48, the pKd (GRIP2_3, Q9C0E4; [2]) was “below the threshold” and the pKd (GRIP2_4, Q9C0E4; [2]) was “below the threshold”. For the same binder, the pKd (GRIP2_5, Q9C0E4; [2]) was “below the threshold”, the pKd (GRIP2_6, Q9C0E4; [2]) was “below the threshold” and the pKd (Inadl_2, Q8NI35; [2]) was “below the threshold”. For the same binder, the pKd (LAP2, Q96RT1; [2]) was “below the threshold”, the pKd (LNX1_1, Q8TBB1; [2]) was “below the threshold” and the pKd (MAGI1_1, Q96QZ7; [2]) was “below the threshold”. For the same binder, the pKd (MPDZ_10, O75970; [2]) was “below the threshold”, the pKd (NHERF2_2, Q15599; [2]) was “below the threshold” and the pKd (NHERF3_1, Q5T2W1; [2]) was “below the threshold”. For the same binder, the pKd (PARD3_3, Q8TEW0; [2]) was “below the threshold”, the pKd (PDZRN3_1, Q9UPQ7; [2]) was “below the threshold” and the pKd (PTPN13_1, Q12923; [2]) was “below the threshold”. For the same binder, the pKd (TIAM2, Q8IVF5; [2]) was “below the threshold” and the pKd (TJP1_3, Q07157; [2]) was “below the threshold”.

With YLEPVLSSEL [ATP2A2, P16615;P16615-3] the pKd (APBA1_2, Q02410; [2]) was “below the threshold”, the pKd (APBA2_1, Q99767; [2]) was “below the threshold” and the pKd (CASK, O14936; [2]) was “below the threshold”. For the same binder, the pKd (DLG3_3, Q92796; [2]) was “below the threshold”, the pKd (FRMPD2_2, Q68DX3; [2]) was “below the threshold” and the pKd (FRMPD2_3, Q68DX3; [2]) was “below the threshold”. The pKd (GORASP1, Q9BQQ3; [2]) was “below the threshold”, the pKd (GRIP2_3, Q9C0E4; [2]) was “below the threshold” and the pKd (GRIP2_4, Q9C0E4; [2]) was “below the threshold”. For the same binder, the pKd (GRIP2_5, Q9C0E4; [2]) was “below the threshold”, the pKd (GRIP2_6, Q9C0E4; [2]) was “below the threshold” and the pKd (HTRA2, O43464; [2]) was “below the threshold”. The pKd (Inadl_2, Q8NI35; [2]) was “below the threshold”, the pKd (LNX1_1, Q8TBB1; [2]) was 4.24 and the pKd (LNX1_2, Q8TBB1; [2]) was “below the threshold”. For the same binder, the pKd (MAGI1_1, Q96QZ7; [2]) was “below the threshold”, the pKd (MPDZ_10, O75970; [2]) was “below the threshold” and the pKd (NHERF2_2, Q15599; [2]) was 4.46. For the same binder, the pKd (NHERF3_1, Q5T2W1; [2]) was 5.47, the pKd (PARD3B_1, Q8TEW8; [2]) was 4.04 and the pKd (PARD3_3, Q8TEW0; [2]) was “below the threshold”. The pKd (PTPN13_1, Q12923; [2]) was “below the threshold”, the pKd (SNTG2, Q9NY99; [2]) was “below the threshold” and the pKd (TIAM2, Q8IVF5; [2]) was 3.98. The pKd (TJP1_3, Q07157; [2]) was “below the threshold”.

In the case of KSGKQTMLVV [TRIM29, Q14134;Q14134-2], the pKd (APBA1_2, Q02410; [2]) is reported as “below the threshold”, the pKd (FRMPD2_2, Q68DX3; [2]) is reported as “below the threshold” and the pKd (FRMPD2_3, Q68DX3; [2]) is reported as “below the threshold”. For the same binder, the pKd (GORASP1, Q9BQQ3; [2]) was 4.34, the pKd (GRIP2_3, Q9C0E4; [2]) was “below the threshold” and the pKd (GRIP2_4, Q9C0E4; [2]) was “below the threshold”. For the same binder, the pKd (Inadl_2, Q8NI35; [2]) was “below the threshold”, the pKd (LAP2, Q96RT1; [2]) was “below the threshold” and the pKd (LNX1_1, Q8TBB1; [2]) was “below the threshold”. For the same binder, the pKd (LNX1_2, Q8TBB1; [2]) was 4.23, the pKd (MAGI1_1, Q96QZ7; [2]) was “below the threshold” and the pKd (NHERF2_2, Q15599; [2]) was “below the threshold”. The pKd (NHERF3_1, Q5T2W1; [2]) was “below the threshold”, the pKd (PARD3B_1, Q8TEW8; [2]) was “below the threshold” and the pKd (PARD3_3, Q8TEW0; [2]) was “below the threshold”. For the same binder, the pKd (PDZRN3_1, Q9UPQ7; [2]) was “below the threshold”, the pKd (PTPN13_1, Q12923; [2]) was “below the threshold” and the pKd (SNTG2, Q9NY99; [2]) was “below the threshold”.

For LPAHHNATRL [SLC34A1, Q06495;Q06495-1], the pKd (APBA1_2, Q02410; [2]) was 4, the pKd (APBA2_1, Q99767; [2]) was “below the threshold” and the pKd (CASK, O14936; [2]) was “below the threshold”. For the same binder, the pKd (DLG3_3, Q92796; [2]) was “below the threshold”, the pKd (FRMPD2_2, Q68DX3; [2]) was “below the threshold” and the pKd (FRMPD2_3, Q68DX3; [2]) was “below the threshold”. The pKd (GORASP1, Q9BQQ3; [2]) was “below the threshold”, the pKd (GRIP2_3, Q9C0E4; [2]) was “below the threshold” and the pKd (GRIP2_4, Q9C0E4; [2]) was “below the threshold”. For the same binder, the pKd (GRIP2_5, Q9C0E4; [2]) was “below the threshold”, the pKd (GRIP2_6, Q9C0E4; [2]) was “below the threshold” and the pKd (HTRA2, O43464; [2]) was “below the threshold”. The pKd (Inadl_2, Q8NI35; [2]) was “below the threshold”, the pKd (LAP2, Q96RT1; [2]) was “below the threshold” and the pKd (LNX1_2, Q8TBB1; [2]) was “below the threshold”. For the same binder, the pKd (MAGI1_1, Q96QZ7; [2]) was “below the threshold”, the pKd (MPDZ_10, O75970; [2]) was “below the threshold” and the pKd (NHERF2_2, Q15599; [2]) was 4.83. The pKd (NHERF3_1, Q5T2W1; [2]) was 5.24, the pKd (PARD3B_1, Q8TEW8; [2]) was 4.62 and the pKd (PARD3_3, Q8TEW0; [2]) was “below the threshold”. For the same binder, the pKd (PTPN13_1, Q12923; [2]) was “below the threshold”, the pKd (SNTG2, Q9NY99; [2]) was 4.15 and the pKd (TIAM2, Q8IVF5; [2]) was “below the threshold”. The pKd (TJP1_3, Q07157; [2]) was “below the threshold”.
